*1 amine or outer side, *2 acyl side, *3 side chain or, on linkers, in order; H or OH if unused. [ ]: non-standard residue; d: D form. The star is where a group is joined. Dnp = O=[N+]([O-])c1ccc(*)c([N+](=O)[O-])c1; C(Me) = CSC[C@H](N[*:1])C(=O)[*:2]
T1: human Gelatinase-A (human, UniProt P08253 110-660, limits assumed)
T1 sequence (looked up): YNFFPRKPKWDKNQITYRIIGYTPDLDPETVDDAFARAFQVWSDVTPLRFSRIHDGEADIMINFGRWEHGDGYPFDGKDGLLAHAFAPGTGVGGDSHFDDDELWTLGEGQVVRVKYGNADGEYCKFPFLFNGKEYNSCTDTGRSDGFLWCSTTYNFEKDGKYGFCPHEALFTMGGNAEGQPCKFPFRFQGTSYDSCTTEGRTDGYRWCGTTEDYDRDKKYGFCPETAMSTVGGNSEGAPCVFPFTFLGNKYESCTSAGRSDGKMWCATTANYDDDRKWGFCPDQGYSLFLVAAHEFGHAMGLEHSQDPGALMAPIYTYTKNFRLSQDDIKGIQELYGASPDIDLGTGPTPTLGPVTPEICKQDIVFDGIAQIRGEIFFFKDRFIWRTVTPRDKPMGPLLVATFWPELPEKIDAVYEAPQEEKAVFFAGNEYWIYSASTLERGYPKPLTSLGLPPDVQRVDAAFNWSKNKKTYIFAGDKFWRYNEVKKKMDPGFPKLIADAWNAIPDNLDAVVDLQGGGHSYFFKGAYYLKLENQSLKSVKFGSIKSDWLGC

T2: collagenase 1 (UniProt P03956 100-469, limits assumed)
T2 sequence (looked up): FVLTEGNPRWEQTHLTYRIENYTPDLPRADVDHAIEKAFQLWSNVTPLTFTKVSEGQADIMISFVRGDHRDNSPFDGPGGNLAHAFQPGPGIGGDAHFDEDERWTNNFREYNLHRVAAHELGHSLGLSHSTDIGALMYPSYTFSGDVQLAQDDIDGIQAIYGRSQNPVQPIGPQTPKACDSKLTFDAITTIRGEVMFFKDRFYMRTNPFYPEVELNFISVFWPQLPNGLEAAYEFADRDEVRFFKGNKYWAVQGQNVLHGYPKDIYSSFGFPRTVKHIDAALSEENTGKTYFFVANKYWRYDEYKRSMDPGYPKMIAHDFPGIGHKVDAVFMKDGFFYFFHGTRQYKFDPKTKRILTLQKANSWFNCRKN


Experiments:
Assay in all cases: cell-based or functional assay
human Gelatinase-A = molecular target: T1, human Gelatinase-A
gelatinase B = gelatinase B (UniProt P14780 107-707, limits assumed)
collagenase 1 = molecular target: T2, collagenase 1
stromelysin 1 = stromelysin 1 (UniProt P08254 100-477, limits assumed)
Chain of stromelysin 1 (P08254 100-477 limits assumed): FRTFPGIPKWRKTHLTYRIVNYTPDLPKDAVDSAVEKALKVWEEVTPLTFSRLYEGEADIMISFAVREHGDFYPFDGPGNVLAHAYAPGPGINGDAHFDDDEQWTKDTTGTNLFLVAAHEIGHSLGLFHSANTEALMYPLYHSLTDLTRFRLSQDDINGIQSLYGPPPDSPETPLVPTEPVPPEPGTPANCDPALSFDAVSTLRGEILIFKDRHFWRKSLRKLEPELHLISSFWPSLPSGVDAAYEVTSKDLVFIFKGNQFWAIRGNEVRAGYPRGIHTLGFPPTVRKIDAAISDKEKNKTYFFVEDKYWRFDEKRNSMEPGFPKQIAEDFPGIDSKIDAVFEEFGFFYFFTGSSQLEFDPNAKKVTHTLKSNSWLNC

Chain of gelatinase B (P14780 107-707 limits assumed): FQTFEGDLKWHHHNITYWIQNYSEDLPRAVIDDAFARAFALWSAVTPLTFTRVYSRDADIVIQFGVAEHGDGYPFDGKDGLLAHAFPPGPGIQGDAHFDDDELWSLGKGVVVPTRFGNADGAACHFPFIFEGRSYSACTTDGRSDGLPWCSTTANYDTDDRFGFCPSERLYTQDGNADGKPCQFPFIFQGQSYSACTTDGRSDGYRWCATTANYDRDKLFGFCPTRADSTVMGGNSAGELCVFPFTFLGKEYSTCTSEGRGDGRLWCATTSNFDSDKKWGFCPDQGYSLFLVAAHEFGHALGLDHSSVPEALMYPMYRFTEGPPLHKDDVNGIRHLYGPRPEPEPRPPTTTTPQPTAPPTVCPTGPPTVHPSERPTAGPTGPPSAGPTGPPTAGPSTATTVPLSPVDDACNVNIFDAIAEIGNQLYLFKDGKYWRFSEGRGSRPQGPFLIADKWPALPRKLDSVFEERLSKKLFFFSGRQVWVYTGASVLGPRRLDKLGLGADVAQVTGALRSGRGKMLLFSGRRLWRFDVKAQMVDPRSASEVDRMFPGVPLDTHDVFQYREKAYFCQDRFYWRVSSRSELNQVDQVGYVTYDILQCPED

| Selectivity v. Coll-3 (human Gelatinase-A) [unitless] | Selectivity v. Coll-3 (gelatinase B) [unitless] | Selectivity v. Coll-3 (collagenase 1) [unitless] | Selectivity v. Coll-3 (stromelysin 1) [unitless] | Binder |
| --- | --- | --- | --- | --- |
| 16 | 5 | 660 | 10400 | Dnp-GPLGLHG[C(Me)]-NH2 (SMILES CSC[C@H](NC(=O)CNC(=O)[C@H](Cc1c[nH]cn1)NC(=O)[C@H](CC(C)C)NC(=O)CNC(=O)[C@H](CC(C)C)NC(=O)[C@@H]1CCCN1C(=O)CNc1ccc([N+](=O)[O-])cc1[N+](=O)[O-])C(N)=O) [Dnp-GPLGLHGC(Me)-NH2] |
| 8 | 7 | 274 | 2990 | Dnp-GPSPLHG[C(Me)]-NH2 (SMILES CSC[C@H](NC(=O)CNC(=O)[C@H](Cc1c[nH]cn1)NC(=O)[C@H](CC(C)C)NC(=O)[C@@H]1CCCN1C(=O)[C@H](CO)NC(=O)[C@@H]1CCCN1C(=O)CNc1ccc([N+](=O)[O-])cc1[N+](=O)[O-])C(N)=O) [Dnp-GPSPLHGC(Me)-NH2] |
| 10 | 13 | 2430 | 1390 | Dnp-GPSPFRG[C(Me)]-NH2 (SMILES CSC[C@H](NC(=O)CNC(=O)[C@H](CCCNC(=N)N)NC(=O)[C@H](Cc1ccccc1)NC(=O)[C@@H]1CCCN1C(=O)[C@H](CO)NC(=O)[C@@H]1CCCN1C(=O)CNc1ccc([N+](=O)[O-])cc1[N+](=O)[O-])C(N)=O) [Dnp-GPSPFRGC(Me)-NH2] |
| 28 | 4 | 2230 | 1050 | Dnp-PHPFRG-NH2 (SMILES N=C(N)NCCC[C@H](NC(=O)[C@H](Cc1ccccc1)NC(=O)[C@@H]1CCCN1C(=O)[C@H](Cc1c[nH]cn1)NC(=O)[C@@H]1CCCN1c1ccc([N+](=O)[O-])cc1[N+](=O)[O-])C(=O)NCC(N)=O) [Dnp-PHPFRG-NH2] |
| 36 | 21 | 550 | 332 | Dnp-GPLPFRV[C(Me)]-NH2 (SMILES CSC[C@H](NC(=O)[C@@H](NC(=O)[C@H](CCCNC(=N)N)NC(=O)[C@H](Cc1ccccc1)NC(=O)[C@@H]1CCCN1C(=O)[C@H](CC(C)C)NC(=O)[C@@H]1CCCN1C(=O)CNc1ccc([N+](=O)[O-])cc1[N+](=O)[O-])C(C)C)C(N)=O) [Dnp-GPLPFRVC(Me)-NH2] |
| 15 | 20 | 17300 | 3970 | Dnp-GPLGFRV[C(Me)]-NH2 (SMILES CSC[C@H](NC(=O)[C@@H](NC(=O)[C@H](CCCNC(=N)N)NC(=O)[C@H](Cc1ccccc1)NC(=O)CNC(=O)[C@H](CC(C)C)NC(=O)[C@@H]1CCCN1C(=O)CNc1ccc([N+](=O)[O-])cc1[N+](=O)[O-])C(C)C)C(N)=O) [Dnp-GPLGFRVC(Me)-NH2] |
| 10 | 17 | 1430 | 35700 | Dnp-GPSGIHV-NH2 (SMILES CC[C@H](C)[C@H](NC(=O)CNC(=O)[C@H](CO)NC(=O)[C@@H]1CCCN1C(=O)CNc1ccc([N+](=O)[O-])cc1[N+](=O)[O-])C(=O)N[C@@H](Cc1c[nH]cn1)C(=O)N[C@H](C(N)=O)C(C)C) [Dnp-GPSGIHV-NH2] |
| 20 | 10 | 36 | 986 | Dnp-GPLPLHG[C(Me)]-NH2 (SMILES CSC[C@H](NC(=O)CNC(=O)[C@H](Cc1c[nH]cn1)NC(=O)[C@H](CC(C)C)NC(=O)[C@@H]1CCCN1C(=O)[C@H](CC(C)C)NC(=O)[C@@H]1CCCN1C(=O)CNc1ccc([N+](=O)[O-])cc1[N+](=O)[O-])C(N)=O) [Dnp-GPLPLHGC(Me)-NH2] |
| 12 | 11 | 126 | 264 | Dnp-GPAPLHV[C(Me)]-NH2 (SMILES CSC[C@H](NC(=O)[C@@H](NC(=O)[C@H](Cc1c[nH]cn1)NC(=O)[C@H](CC(C)C)NC(=O)[C@@H]1CCCN1C(=O)[C@H](C)NC(=O)[C@@H]1CCCN1C(=O)CNc1ccc([N+](=O)[O-])cc1[N+](=O)[O-])C(C)C)C(N)=O) [Dnp-GPAPLHVC(Me)-NH2] |
| 9 | 14 | 4420 | 488 | Dnp-GPAPFRG[C(Me)]-NH2 (SMILES CSC[C@H](NC(=O)CNC(=O)[C@H](CCCNC(=N)N)NC(=O)[C@H](Cc1ccccc1)NC(=O)[C@@H]1CCCN1C(=O)[C@H](C)NC(=O)[C@@H]1CCCN1C(=O)CNc1ccc([N+](=O)[O-])cc1[N+](=O)[O-])C(N)=O) [Dnp-GPAPFRGC(Me)-NH2] |
| 37 | 82 | 5790 | 448 | Dnp-GPAPFRV[C(Me)]-NH2 (SMILES CSC[C@H](NC(=O)[C@@H](NC(=O)[C@H](CCCNC(=N)N)NC(=O)[C@H](Cc1ccccc1)NC(=O)[C@@H]1CCCN1C(=O)[C@H](C)NC(=O)[C@@H]1CCCN1C(=O)CNc1ccc([N+](=O)[O-])cc1[N+](=O)[O-])C(C)C)C(N)=O) [Dnp-GPAPFRVC(Me)-NH2] |
| 12 | 10 | 473 | 620 | Dnp-GPAPLHG[C(Me)]-NH2 (SMILES CSC[C@H](NC(=O)CNC(=O)[C@H](Cc1c[nH]cn1)NC(=O)[C@H](CC(C)C)NC(=O)[C@@H]1CCCN1C(=O)[C@H](C)NC(=O)[C@@H]1CCCN1C(=O)CNc1ccc([N+](=O)[O-])cc1[N+](=O)[O-])C(N)=O) [Dnp-GPAPLHGC(Me)-NH2] |
| 20 | 18 | 2950 | 619 | Dnp-GPLPFHV[C(Me)]-NH2 (SMILES CSC[C@H](NC(=O)[C@@H](NC(=O)[C@H](Cc1c[nH]cn1)NC(=O)[C@H](Cc1ccccc1)NC(=O)[C@@H]1CCCN1C(=O)[C@H](CC(C)C)NC(=O)[C@@H]1CCCN1C(=O)CNc1ccc([N+](=O)[O-])cc1[N+](=O)[O-])C(C)C)C(N)=O) [Dnp-GPLPFHVC(Me)-NH2] |
| 18 | 54 | 1570 | 2100 | Dnp-GPSPFHV[C(Me)]-NH2 (SMILES CSC[C@H](NC(=O)[C@@H](NC(=O)[C@H](Cc1c[nH]cn1)NC(=O)[C@H](Cc1ccccc1)NC(=O)[C@@H]1CCCN1C(=O)[C@H](CO)NC(=O)[C@@H]1CCCN1C(=O)CNc1ccc([N+](=O)[O-])cc1[N+](=O)[O-])C(C)C)C(N)=O) [Dnp-GPSPFHVC(Me)-NH2] |
| 32 | 26 | 182 | 12700 | Dnp-GPLGLHV[C(Me)]-NH2 (SMILES CSC[C@H](NC(=O)[C@@H](NC(=O)[C@H](Cc1c[nH]cn1)NC(=O)[C@H](CC(C)C)NC(=O)CNC(=O)[C@H](CC(C)C)NC(=O)[C@@H]1CCCN1C(=O)CNc1ccc([N+](=O)[O-])cc1[N+](=O)[O-])C(C)C)C(N)=O) [Dnp-GPLGLHVC(Me)-NH2] |
| 10 | 7 | 10600 | 7290 | Dnp-GPLGFRG[C(Me)]-NH2 (SMILES CSC[C@H](NC(=O)CNC(=O)[C@H](CCCNC(=N)N)NC(=O)[C@H](Cc1ccccc1)NC(=O)CNC(=O)[C@H](CC(C)C)NC(=O)[C@@H]1CCCN1C(=O)CNc1ccc([N+](=O)[O-])cc1[N+](=O)[O-])C(N)=O) [Dnp-GPLGFRGC(Me)-NH2] |
| 16 | 8 | 429 | 814 | Dnp-GPLPFRG[C(Me)]-NH2 (SMILES CSC[C@H](NC(=O)CNC(=O)[C@H](CCCNC(=N)N)NC(=O)[C@H](Cc1ccccc1)NC(=O)[C@@H]1CCCN1C(=O)[C@H](CC(C)C)NC(=O)[C@@H]1CCCN1C(=O)CNc1ccc([N+](=O)[O-])cc1[N+](=O)[O-])C(N)=O) [Dnp-GPLPFRGC(Me)-NH2] |

— patent US20030229005A1 (BIOZYME, published 2003)
